# How the values were obtained:
# [1] = molecular target: CTD2* (A3G-CTD2 E259A), His-tagged (Homo sapiens, UniProt Q9HC16 191-384, P200A;L234K;N236A;C243A;P247K;E259A;F310K;Q318K;C321A;Q322A;C356A); assay: MST; Zn2+ (20 uM ZnCl2); 20 mM Bis-Tris pH 6.5, 100 mM NaCl, 1 mM DTT, 0.002% Tween 20; ZnCl2 20 uM (MST) or 10 uM (EMSA); MST incubated at 4 C, measured at room temperature; EMSA incubated 1 h at room temperature, gel at 4 C; details: protein: recombinant; tags: poly-His (pET-28a), RED-tris-NTA dye
# [2] = molecular target: CTD2* (A3G-CTD2 E259A), GST-purified (Homo sapiens, UniProt Q9HC16 191-384, P200A;L234K;N236A;C243A;P247K;E259A;F310K;Q318K;C321A;Q322A;C356A); assay: competition; EMSA; unlabeled competitor 25-2500 nM against N2; band not affected; 20 mM Bis-Tris pH 6.5, 100 mM NaCl, 1 mM DTT, 0.002% Tween 20; ZnCl2 20 uM (MST) or 10 uM (EMSA); MST incubated at 4 C, measured at room temperature; EMSA incubated 1 h at room temperature, gel at 4 C; details: protein: recombinant; tags: GST removed by PreScission protease (pGEX6P-1)
# Chain of CTD2* (A3G-CTD2 E259A), GST-purified (Q9HC16 191-384 P200A/L234K/N236A/C243A/P247K/E259A/F310K/Q318K/C321A/Q322A/C356A): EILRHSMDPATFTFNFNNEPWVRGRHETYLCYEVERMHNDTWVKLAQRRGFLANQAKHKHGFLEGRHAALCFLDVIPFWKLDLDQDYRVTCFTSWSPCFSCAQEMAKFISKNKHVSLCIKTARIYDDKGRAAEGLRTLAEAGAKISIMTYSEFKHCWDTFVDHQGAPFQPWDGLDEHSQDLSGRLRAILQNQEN
# Chain of CTD2* (A3G-CTD2 E259A), His-tagged (Q9HC16 191-384 P200A/L234K/N236A/C243A/P247K/E259A/F310K/Q318K/C321A/Q322A/C356A): as above
Binder,Kd [1],binding result [2]
AATCCCAAA (ssDNA) [9nt substrate ssDNA],55 ± 12 µM,
AAUCCCAAA (ssRNA) [9nt RNA],1500 ± 500 µM,
AAAAAAAAA (ssDNA) [9nt polyA],,no binding

# Source: paper PMC6018426, “Crystal structure of the catalytic domain of HIV-1 restriction factor APOBEC3G in complex with ssDNA”
